Data taken from article PMC3048824 (Journal of molecular biology, 2009).
Where “and” joins values, the source holds several entries; their conditions need not be identical. Equal values may be shown once.

Tests used:
AUC = biological target: the molecule itself; experiment: AUC
[1] = biological target: the molecule itself; experiment: GdmCl-induced equilibrium unfolding-refolding monitored by CD

Protein	stoichiometry N (AUC)	Keq ([U]^3/[N], native trimer to unfolded monomers, in water) [1] [mol^2]
full-length NC1 domain of murine collagen XV (domain or fragment) NLVTALSDMGDMLQKAHLVIEGTFIYLRDSGEFFIRVRDGWKKLQLGELIPIPADSPPPPALSSNPYQPQPPLNPILSANYERPVLHLVALNTPVAGDIRADFQCFQQARAAGLLSTFRAFLSSHLQDLSTVVRKAERFGLPIVNLKGQVLFNNWDSIFSGDGGQFNTHIPIYSFDGRDVMTDPSWPQKVVWHGSNPHGVRLVDKYCEAWRTTDMAVTGFASPLSTGKILDQKAYSCANRLIVLCIENSFMTDTRK	3.11 and 3.6	
full-length NC1 domain of murine collagen XVIII (domain or fragment) AGQVRIWATYQTMLDKIREVPEGWLIFVAEREELYVRVRNGFRKVLLEARTALPRGTGNEVAALQPPLVQLHEGSPYTRREYSYSTARPWRADDILANPPRLPDRQPYPGVPHHHSSYVHLPPARPTLSLAHTHQDFQPVLHLVALNTPLSGGMRGIRGADFQCFQQARAVGLSGTFRAFLSSRLQDLYSIVRRADRGSVPIVNLKDEVLSPSWDSLFSGSQGQLQPGARIFSFDGRDVLRHPAWPQKSVWHGSDPSGRRLMESYCETWRTETTGATGQASSLLSGRLLEQKAASCHNSYIVLCIENSFMTSFSK	2.56	
NC1(54) peptide of human collagen XVIII (domain or fragment) GSSGVRLWATRQAMLGQVHEVPEGWLIFVAEQEELYVRVQNGFRKVQLEARTPLPR		2.4e-21
